This is an account of results in paper PMC6881253, “The PCNA interaction motifs revisited: thinking outside the PIP-box” (Cellular and Molecular Life Sciences: CMLS, 2019).

What all share (details): both partners purified
In assay [1] the target is T1, N-terminally His6-tagged human PCNA (proliferating cell nuclear antigen) (human, UniProt P12004 1-261).
T1 construct: Proliferating cell nuclear antigen, human; The tag is used for capture in SPR; source: E. coli BL21(DE3), purified (Ni-NTA, SEC)
T1 sequence (P12004 whole entry): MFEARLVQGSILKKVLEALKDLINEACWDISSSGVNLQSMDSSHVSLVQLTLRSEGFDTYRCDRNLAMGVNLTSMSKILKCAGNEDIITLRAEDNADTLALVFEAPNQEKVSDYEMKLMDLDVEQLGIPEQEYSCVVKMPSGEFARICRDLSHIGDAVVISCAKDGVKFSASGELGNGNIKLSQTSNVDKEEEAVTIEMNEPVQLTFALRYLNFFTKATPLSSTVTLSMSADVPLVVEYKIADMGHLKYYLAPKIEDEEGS
Description: SPR; Biacore T200, single-cycle; His6-PCNA captured by anti-His antibody coupled to a CM5 chip, peptides injected (five twofold dilutions); 10 mM HEPES, 150 mM NaCl, 0.05% P20, pH 7.4; 25 °C; kinetic fit for p21, steady-state fit for the other peptides. In general terms: SPR reads the build-up and loss of mass on a sensor chip optically.

The target of assay [2] is T1, N-terminally His6-tagged human PCNA …. Described as above. This is another data set of the same source.
The target is the same in assay [3]. Description: ITC; ITC200; PCNA injected into the peptide; 10 mM HEPES, 150 mM NaCl, 1 mM EDTA, 1 mM TCEP, pH 7.4; 25 °C; single binding site model; triplicates. A general note: In ITC the heat of successive injections is recorded.
Assay [4] shares this target. The description is as above. This is another data set of the same source.

B1: MSH6 peptide (Ac-RQSTLYSFFPKSPAL-NH2) (peptide)
peptide: Ac-RQSTLYSFFPKSPAL-NH2
notes: DNA mismatch repair protein MSH6, human, canonical PIP-box at the very N-terminus; source: peptide, > 95% purity
By Kd is commonly meant the free concentration of one partner at which half of the binding sites on the other are occupied at equilibrium, for simple one-to-one binding. Consider B1, for which the Kd worked out at 3000 ± 50 nM in assay [1] and 2900 nM in assay [2].

B2: p21^143–157 peptide (Ac-RQTSMTDFYHSKRRL-NH2) (peptide)
peptide: Ac-RQTSMTDFYHSKRRL-NH2
notes: also called initial p21 peptide; p21 peptide; source: peptide, > 95% purity
The koff is the rate constant with which the complex falls apart. A high value points to fast dissociation. Broadly, the kon is the second-order rate constant of association. Broadly, the stoichiometry N is the number of molecules, sites or subunits per partner or assembly. For the molecule B2, in assay [3], the affinity, expressed as Kd, was 67 nM and the dH was -55 kcal/mol. Also, in assay [1], the koff is 0.14 ± 0.0003 s⁻¹, the kon came out at 1.7e+06 M⁻¹ s⁻¹ and the “stoichiometry N” value amounted to 3 ligands per PCNA trimer. For the same molecule, binding in assay [2] was characterised by a dissociation constant (Kd) of 80 nM.

B3: synthetic peptide harboring an APIM (Ac-MDRWLVKW-NH2) (peptide)
peptide: Ac-MDRWLVKW-NH2
notes: also called APIM peptide; source: synthetic peptide, > 95% purity
In assay [2], B3 had a Kd of 11000 nM.

B4: p21^140–157,Q144A (Ac-RKRRATSMTDFYHSKRRL-NH2) (peptide)
peptide: Ac-RKRRATSMTDFYHSKRRL-NH2
notes: also called p21 peptide variant with Q at the first position mutated to alanine; source: peptide, > 95% purity
As for B4, the Kd in assay [4] was 1300 nM.

B5: p21^140–157 peptide (peptide)
peptide: Ac-RKRRQTSMTDFYHSKRRL-NH2
notes: also called extended peptide; source: peptide, > 95% purity
B5: the Kd in assay [4] stood at 27 nM.

B6: chimeric peptide comprising the Fen1 motif and the flanking regions of p21 (Ac-RKRRQGRLDDFFHSKRRL-NH2) (peptide)
peptide: Ac-RKRRQGRLDDFFHSKRRL-NH2
notes: PIP-box motif of flap endonuclease 1 (FEN1), human; also called p21 flanks grafted to Fen1; source: peptide, > 95% purity
In the case of B6, in assay [4], binding was put at a Kd of 730 nM.

B7: FEN1 peptide (Ac-TQGRLDDFFKVTGSL-NH2) (peptide)
peptide: Ac-TQGRLDDFFKVTGSL-NH2
notes: Flap endonuclease 1 (FEN1), human, canonical PIP-box; source: peptide, > 95% purity
In turn, B7 gave a Kd in assay [2] of 45000 nM.

B8: p21^140–164 peptide (Ac-[residues removed]-NH2) (peptide)
peptide: RKRRQTSMTDFYHSKRRLIFSKRKP
modifications: N-terminally acetylated, C-terminally amidated
notes: called p21^140–163 in the results and the ITC methods; the name p21^140–163 is used elsewhere for the same peptide; also called p21^140–163; source: peptide, > 95% purity
In assay [4], B8 returned a Kd of 6.4 nM.
